Data set [1] addresses T1, SSB1 (human, UniProt Q9BQ15 1-211). The data set is described as follows: EMSA; EMSA: 100 nM Cy3 probe, 20 mM Tris-HCl pH 7.5, 50 mM NaCl, 5 mM MgCl2, 0.2 mM EDTA, 1 mM DTT, on ice 30 min; 6% native PAGE, 0.5x TBE, cold room. Conditions: protein: recombinant; blunt. On the technique in general: In EMSA bound probe runs differently from free probe, usually more slowly.
The target of data set [2] is T1, SSB1. In words: EMSA; ED Fig. 2a ssDNA taken as (dT)48, the only listed ssDNA oligo; EMSA: 100 nM Cy3 probe, 20 mM Tris-HCl pH 7.5, 50 mM NaCl, 5 mM MgCl2, 0.2 mM EDTA, 1 mM DTT, on ice 30 min; 6% native PAGE, 0.5x TBE, cold room. Conditions: protein: recombinant; label: 3' Cy3.

T1 sequence (Q9BQ15 whole entry): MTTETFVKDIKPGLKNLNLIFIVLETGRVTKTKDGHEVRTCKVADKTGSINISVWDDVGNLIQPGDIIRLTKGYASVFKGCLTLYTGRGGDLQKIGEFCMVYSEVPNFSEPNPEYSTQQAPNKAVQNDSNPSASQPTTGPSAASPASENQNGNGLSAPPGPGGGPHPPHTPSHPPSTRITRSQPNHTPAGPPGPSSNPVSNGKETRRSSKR

B1: Blunt-end dsDNA (30 bp) random (dsDNA)
DNA 1: GAGCTACCAGCTACCCCGTATGTCAGAGAG
DNA 2: CTCTCTGACATACGGGGTAGCTGGTAGCTC
On to B1, for which, in the data set with SSB1 [1], the binding result was “no binding”.

As to TTTTTTTTTTTTTTTTTTTTTTTTTTTTTTTTTTTTTTTTTTTTTTTT (ssDNA) [oligo (dT)48], in the data set with SSB1 [2], the binding result is recorded as “binds”.

These data come from article PMC10511320, “R-loop-dependent promoter-proximal termination ensures genome stability”.
